According to article PMC5463187:

Target: RSV strain A2 pre-fusion F, single-chain triple mutant (SC-TM) construct (respiratory syncytial virus subgroup A strain A2)
Assay: crystal structure

With “RSV strain A2 pre-fusion F, single-chain triple mutant (SC-TM) construct (natural protein)” the stoichiometry N was 3.
